From publication PMC6547726, “Advanced FRET normalization allows quantitative analysis of protein interactions including stoichiometries and relative affinities in living cells” (Scientific Reports, 2019) come the findings set out here.

One experiment concerns the target YFP-p65 (UniProt Q04206). In words: FRET or BRET; 3-filter FRET by flow cytometry (CYTOFLEX S) of living transfected HeLa cells, five plasmid ratios; DFRET of single cells fitted to a law-of-mass-action model (Ka^app apparent, z, FRETmax).
The target in another experiment is T1, YFP-tagged IKKα (UniProt O15111 1-745).
T1 construct: IKKα, IKK subunit α of the NF-kappaB pathway; FRET donor; also called IKK subunit α; source: HeLa cells (clone ACC 57), transfected, in living cells
T1 sequence (looked up): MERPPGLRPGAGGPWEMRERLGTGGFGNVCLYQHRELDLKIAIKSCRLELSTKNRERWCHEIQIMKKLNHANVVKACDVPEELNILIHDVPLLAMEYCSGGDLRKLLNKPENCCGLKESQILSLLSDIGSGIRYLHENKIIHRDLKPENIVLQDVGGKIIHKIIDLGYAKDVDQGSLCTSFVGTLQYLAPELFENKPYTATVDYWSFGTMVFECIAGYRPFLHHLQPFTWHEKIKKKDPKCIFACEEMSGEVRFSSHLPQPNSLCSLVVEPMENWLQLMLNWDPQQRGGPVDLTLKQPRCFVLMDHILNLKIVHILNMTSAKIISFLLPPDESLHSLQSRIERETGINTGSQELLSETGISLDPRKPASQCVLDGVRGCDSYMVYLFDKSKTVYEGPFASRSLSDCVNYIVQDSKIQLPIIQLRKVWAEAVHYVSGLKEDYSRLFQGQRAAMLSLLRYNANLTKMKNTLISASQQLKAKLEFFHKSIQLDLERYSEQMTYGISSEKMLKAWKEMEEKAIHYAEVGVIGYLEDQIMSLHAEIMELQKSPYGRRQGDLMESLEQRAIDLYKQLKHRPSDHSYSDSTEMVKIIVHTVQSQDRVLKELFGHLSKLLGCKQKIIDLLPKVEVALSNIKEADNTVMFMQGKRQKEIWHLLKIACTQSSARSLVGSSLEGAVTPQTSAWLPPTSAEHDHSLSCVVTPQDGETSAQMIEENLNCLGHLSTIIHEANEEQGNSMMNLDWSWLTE
Described as above. To be noted: partners not purified.

YFP-p65, sequence (Q04206 whole entry): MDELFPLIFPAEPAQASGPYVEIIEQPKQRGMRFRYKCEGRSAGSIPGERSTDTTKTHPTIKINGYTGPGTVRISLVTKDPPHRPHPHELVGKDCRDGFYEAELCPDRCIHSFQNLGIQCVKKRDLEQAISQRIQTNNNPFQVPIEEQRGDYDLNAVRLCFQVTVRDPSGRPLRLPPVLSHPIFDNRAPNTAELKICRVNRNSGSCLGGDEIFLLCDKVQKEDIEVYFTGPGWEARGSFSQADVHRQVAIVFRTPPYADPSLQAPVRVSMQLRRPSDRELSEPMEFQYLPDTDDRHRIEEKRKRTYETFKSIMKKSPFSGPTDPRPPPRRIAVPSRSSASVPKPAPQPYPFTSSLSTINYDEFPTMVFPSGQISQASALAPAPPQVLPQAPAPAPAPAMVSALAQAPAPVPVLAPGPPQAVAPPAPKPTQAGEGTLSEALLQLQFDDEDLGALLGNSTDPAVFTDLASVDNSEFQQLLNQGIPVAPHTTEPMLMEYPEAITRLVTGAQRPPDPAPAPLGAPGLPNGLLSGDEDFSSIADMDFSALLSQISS

“IκB-mCherry (from UniProt P25963 1-317) (natural protein)”: in the experiment with YFP-p65, the stoichiometry N (acceptor (IκB) per donor (p65)) was 0.5.

B1: mCherry-tagged IKKβ (natural protein, UniProt O14920 1-756, looked up)
chain: MSWSPSLTTQTCGAWEMKERLGTGGFGNVIRWHNQETGEQIAIKQCRQELSPRNRERWCLEIQIMRRLTHPNVVAARDVPEGMQNLAPNDLPLLAMEYCQGGDLRKYLNQFENCCGLREGAILTLLSDIASALRYLHENRIIHRDLKPENIVLQQGEQRLIHKIIDLGYAKELDQGSLCTSFVGTLQYLAPELLEQQKYTVTVDYWSFGTLAFECITGFRPFLPNWQPVQWHSKVRQKSEVDIVVSEDLNGTVKFSSSLPYPNNLNSVLAERLEKWLQLMLMWHPRQRGTDPTYGPNGCFKALDDILNLKLVHILNMVTGTIHTYPVTEDESLQSLKARIQQDTGIPEEDQELLQEAGLALIPDKPATQCISDGKLNEGHTLDMDLVFLFDNSKITYETQISPRPQPESVSCILQEPKRNLAFFQLRKVWGQVWHSIQTLKEDCNRLQQGQRAAMMNLLRNNSCLSKMKNSMASMSQQLKAKLDFFKTSIQIDLEKYSEQTEFGITSDKLLLAWREMEQAVELCGRENEVKLLVERMMALQTDIVDLQRSPMGRKQGGTLDDLEEQARELYRRLREKPRDQRTEGDSQEMVRLLLQAIQSFEKKVRVIYTQLSKTVVCKQKALELLPKVEEVVSLMNEDEKTVVRLQEKRQKELWNLLKIACSKVRGPVSGSPDSMNASRLSQPGQLMSQPSTASNSLPEPAKKSEELVAEAHNLCTLLENAIQDTVREQDQSFTALDWSWLQTEEEEHSCLEQAS
notes: IKKβ, IKK subunit β of the NF-kappaB pathway; FRET acceptor; also called IKK subunit β; source: HeLa cells (clone ACC 57), transfected, in living cells
Broadly, the stoichiometry N is a count of units in the complex or per binding partner. For the molecule B1, in the experiment with YFP-tagged IKKα, the “stoichiometry N” value was ~1 acceptor (IKKβ) per donor (IKKα).
